Measured values from article PMC2566886.

Molecular target: human Nudt16 protein (human) (UniProt Q96DE0)
Test: cross-linking

Chain of human Nudt16 protein (Q96DE0 whole entry): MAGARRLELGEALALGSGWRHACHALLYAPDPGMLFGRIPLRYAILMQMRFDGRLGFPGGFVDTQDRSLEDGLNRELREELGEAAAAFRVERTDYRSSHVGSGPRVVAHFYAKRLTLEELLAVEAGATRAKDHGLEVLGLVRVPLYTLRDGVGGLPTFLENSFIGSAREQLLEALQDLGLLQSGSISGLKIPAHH

stoichiometry N: 2
Substance: human Nudt16 protein (from UniProt Q96DE0 1-195) (enzyme)
